Key:
[1] = target: T1, human common cytokine receptor γ chain (human, UniProt P31785 23-369); assay: BLI; in presence of hIL-21R (hIL-21R/hγc)
T1 chain: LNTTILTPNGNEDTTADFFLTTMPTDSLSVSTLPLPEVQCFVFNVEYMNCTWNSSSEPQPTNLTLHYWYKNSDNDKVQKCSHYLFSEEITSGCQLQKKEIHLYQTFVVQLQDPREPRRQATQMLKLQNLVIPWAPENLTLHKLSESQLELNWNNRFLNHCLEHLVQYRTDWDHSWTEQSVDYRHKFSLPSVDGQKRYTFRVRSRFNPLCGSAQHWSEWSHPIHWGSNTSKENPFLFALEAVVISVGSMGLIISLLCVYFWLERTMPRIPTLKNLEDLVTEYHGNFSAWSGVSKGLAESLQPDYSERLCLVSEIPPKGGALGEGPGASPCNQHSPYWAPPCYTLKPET

murine IL-21R = murine IL-21R (murine, UniProt Q9JHX3 20-529); assay: BLI
human IL-21 receptor = human IL-21 receptor (human, UniProt Q9HBE5 20-538); assay: BLI
murine γc = target: T2, murine γc (murine, UniProt P34902 23-369); assay: BLI; in presence of mIL-21R (mIL-21R/mγc)
T2 chain: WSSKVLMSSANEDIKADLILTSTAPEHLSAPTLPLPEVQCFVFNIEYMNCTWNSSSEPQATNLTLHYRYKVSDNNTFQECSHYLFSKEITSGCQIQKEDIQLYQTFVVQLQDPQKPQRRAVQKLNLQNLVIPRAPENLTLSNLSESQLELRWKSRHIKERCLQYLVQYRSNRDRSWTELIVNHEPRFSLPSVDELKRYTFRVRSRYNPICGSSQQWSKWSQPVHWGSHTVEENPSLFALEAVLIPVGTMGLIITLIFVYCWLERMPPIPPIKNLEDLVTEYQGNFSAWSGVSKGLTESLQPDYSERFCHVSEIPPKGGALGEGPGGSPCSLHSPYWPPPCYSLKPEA

Chain of human IL-21 receptor (Q9HBE5 20-538): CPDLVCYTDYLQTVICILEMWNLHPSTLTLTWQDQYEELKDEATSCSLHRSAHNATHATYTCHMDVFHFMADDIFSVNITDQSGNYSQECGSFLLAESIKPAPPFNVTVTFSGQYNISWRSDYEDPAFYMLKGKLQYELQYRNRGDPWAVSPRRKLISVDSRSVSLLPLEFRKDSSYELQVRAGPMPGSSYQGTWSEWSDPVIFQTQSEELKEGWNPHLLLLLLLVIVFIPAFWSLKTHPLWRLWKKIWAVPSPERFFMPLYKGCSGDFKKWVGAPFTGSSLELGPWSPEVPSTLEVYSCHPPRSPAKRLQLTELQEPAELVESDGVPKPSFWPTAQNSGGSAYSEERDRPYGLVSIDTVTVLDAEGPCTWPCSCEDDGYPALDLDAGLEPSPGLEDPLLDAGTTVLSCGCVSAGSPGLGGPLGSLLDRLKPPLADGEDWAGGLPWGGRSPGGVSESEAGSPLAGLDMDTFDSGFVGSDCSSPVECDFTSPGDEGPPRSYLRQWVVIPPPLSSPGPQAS

- Kd [1]: 85.5 nM
- Kd (murine IL-21R): 5.17 nM
- Kd (human IL-21 receptor): 0.0737 nM
- Kd (murine γc): 93.3 nM
B1: 21h10 (designed binder)
chain: DEEELKEIMKEAAECARKELEKLDNTDEDTRWLKITLKKIVRMANRIVRMREREADSKRFEIRMRGLIDIADHVKREFASEDLKEVMERAKSAAQKALGRWL

— PMC12768534 (2025)
